Data as given in patent publication US12458703B2, “Responsive elastic polymers and methods of making and using same” (Purdue Research Foundation, priority 2016, dated 2025).

Experiment: Intravital fluorescence imaging of BSA-AF release in the knee joint after intra-articular injection
Assay type: in vivo
Details: total radiant efficiency from knee joint, released from HA-g-PNIPAm hydrogels

## Alexa Fluor 680 conjugated BSA: Alexa Fluor 680 conjugated BSA released from HA-g-PNIPAm hydrogels
  time detected in the knee joints: more than 24 hours
n=4
  time of maximum concentration post intra-articular injection: 6 to 12 h
